Assay results: the Immune Epitope Database (IEDB)

Experiments:
HLA-A*29:02 = experiment: IEDB peptide-MHC binding, purified MHC/direct/fluorescence; filed as Kd, often an IC50 or EC50 that approximates it; ≥ and ≤ were set here for values at or beyond the usual limits of such assays; conditions: source organism: Zaire ebolavirus
HLA-A*68:02 = experiment: as above
HLA-A*02:16 = experiment: as above
HLA-A*03:01 [1] = experiment: as above
HLA-A*02:11 = experiment: as above; conditions: source organism: Zaire ebolavirus
HLA-A*02:03 = experiment: as above
HLA-A*02:12 = experiment: as above; conditions: source organism: Zaire ebolavirus
HLA-B*15:01 [2] = experiment: as above
HLA-A*02:19 = experiment: as above; conditions: source organism: Zaire ebolavirus
HLA-B*27:03 = experiment: IEDB peptide-MHC binding, purified MHC/competitive/fluorescence; filed as Kd, often an IC50 or EC50 that approximates it; ≥ and ≤ were set here for values at or beyond the usual limits of such assays
HLA-B*51:01 = experiment: as above
HLA-B*46:01 [3] = experiment: as above
HLA-B*57:01 = experiment: as above
HLA-B*58:01 [4] = experiment: as above
HLA-A*02:01 [5] = experiment: as above; conditions: source organism: Zaire ebolavirus
HLA-A*69:01 [6] = experiment: as above
HLA-B*39:01 [7] = experiment: as above
HLA-A*26:01 [8] = experiment: as above
HLA-B*18:01 = experiment: as above
HLA-C*06:02 = experiment: IEDB peptide-MHC binding, purified MHC/direct/fluorescence; filed as Kd, often an IC50 or EC50 that approximates it; ≥ and ≤ were set here for values at or beyond the usual limits of such assays
HLA-A*69:01 [9] = experiment: as above; conditions: source organism: Francisella tularensis subsp. holarctica LVS
HLA-A*31:01 [10] = experiment: IEDB peptide-MHC binding, purified MHC/competitive/fluorescence; filed as Kd, often an IC50 or EC50 that approximates it; ≥ and ≤ were set here for values at or beyond the usual limits of such assays; conditions: source organism: Francisella tularensis subsp. tularensis FSC198
HLA-A*24:03 = experiment: as above; conditions: source organism: Francisella tularensis subsp. tularensis FSC198
HLA-A*26:02 = experiment: IEDB peptide-MHC binding, purified MHC/direct/fluorescence; filed as Kd, often an IC50 or EC50 that approximates it; ≥ and ≤ were set here for values at or beyond the usual limits of such assays; conditions: source organism: Vibrio cholerae V51
HLA-A*26:01 [11] = experiment: as above
HLA-A*31:01 [12] = experiment: as above; conditions: source organism: Camelpox virus M-96
HLA-B*46:01 [13] = experiment: as above; conditions: source organism: Camelpox virus M-96
HLA-B*48:01 = experiment: as above
HLA-B*58:01 [14] = experiment: as above
HLA-A*02:01 [15] = experiment: as above; conditions: source organism: Camelpox virus M-96
HLA-B*27:05 = experiment: as above; conditions: source organism: Camelpox virus M-96
HLA-B*40:01 = experiment: as above; conditions: source organism: Camelpox virus M-96
HLA-A*33:01 = experiment: IEDB peptide-MHC binding, purified MHC/competitive/radioactivity; filed as Kd, often an IC50 or EC50 that approximates it; ≥ and ≤ were set here for values at or beyond the usual limits of such assays; conditions: source organism: Vaccinia virus WR
HLA-A*68:01 = experiment: as above; conditions: source organism: Vaccinia virus WR
HLA-A*03:01 [16] = experiment: IEDB peptide-MHC binding, purified MHC/competitive/fluorescence; filed as Kd, often an IC50 or EC50 that approximates it; ≥ and ≤ were set here for values at or beyond the usual limits of such assays
HLA-A*11:01 = experiment: as above; conditions: source organism: Variola virus
HLA-A*01:01 = experiment: as above
HLA-B*15:17 = experiment: as above; conditions: source organism: Variola virus
HLA-C*14:02 = experiment: IEDB peptide-MHC binding, purified MHC/direct/fluorescence; filed as Kd, often an IC50 or EC50 that approximates it; ≥ and ≤ were set here for values at or beyond the usual limits of such assays
HLA-C*15:02 = experiment: as above; conditions: source organism: Orthohantavirus andesense
HLA-B*15:01 [17] = experiment: IEDB peptide-MHC binding, purified MHC/competitive/fluorescence; filed as Kd, often an IC50 or EC50 that approximates it; ≥ and ≤ were set here for values at or beyond the usual limits of such assays
HLA-B*39:01 [18] = experiment: IEDB peptide-MHC binding, purified MHC/direct/fluorescence; filed as Kd, often an IC50 or EC50 that approximates it; ≥ and ≤ were set here for values at or beyond the usual limits of such assays; conditions: source organism: Influenza A virus (A/mallard/Norway/685/05(H9N2))
HLA-C*12:03 = experiment: as above; conditions: source organism: Zaire ebolavirus
HLA-B*35:01 = experiment: IEDB peptide-MHC binding, purified MHC/competitive/fluorescence; filed as Kd, often an IC50 or EC50 that approximates it; ≥ and ≤ were set here for values at or beyond the usual limits of such assays; conditions: source organism: Mycobacterium tuberculosis H37Rv
[19] = source organism: Zaire ebolavirus
[20] = source organism: Camelpox virus M-96
[21] = source organism: Burkholderia orbicola
[22] = source organism: Calabazo virus
[23] = source organism: Orthohantavirus andesense

ISSGETRSF
Kd (HLA-A*29:02): ≥ 20 µM | Kd (HLA-A*68:02; [19]): ≥ 20 µM | Kd (HLA-A*02:16; [19]): ≥ 20 µM | Kd (HLA-A*03:01 [1]; [19]): ≥ 20 µM | Kd (HLA-A*02:11): ≥ 20 µM | Kd (HLA-A*02:03; [19]): ≥ 20 µM | Kd (HLA-A*02:12): ≥ 20 µM | Kd (HLA-B*15:01 [2]; source organism: Nitrococcus mobilis Nb-231): 3.6 µM | Kd (HLA-A*02:19): ≥ 20 µM | Kd (HLA-B*27:03; [19]): ≥ 20 µM | Kd (HLA-B*51:01; [19]): ≥ 20 µM | Kd (HLA-B*46:01 [3]; [19]): ≥ 20 µM | Kd (HLA-B*57:01; [19]): ≥ 20 µM | Kd (HLA-B*58:01 [4]; [19]): 0.351 µM | Kd (HLA-A*02:01 [5]): ≥ 20 µM | Kd (HLA-A*69:01 [6]; [19]): ≥ 20 µM | Kd (HLA-B*39:01 [7]; [19]): ≥ 20 µM | Kd (HLA-A*26:01 [8]; [19]): ≥ 20 µM | Kd (HLA-B*18:01; [19]): ≥ 20 µM

KYYIYRLYF
Kd (HLA-C*06:02; source organism: Francisella tularensis subsp. tularensis FSC198): ≥ 20 µM | Kd (HLA-A*69:01 [9]): ≥ 20 µM | Kd (HLA-A*31:01 [10]): ≥ 20 µM | Kd (HLA-A*24:03): 0.0008 µM

AIARGFHFY
Kd (HLA-A*26:02): 0.107 µM | Kd (HLA-A*26:01 [11]; source organism: Vibrio cholerae V51): 1.07 µM

ETIEILRNY
Kd (HLA-A*31:01 [12]): ≥ 20 µM | Kd (HLA-B*46:01 [13]): ≥ 20 µM | Kd (HLA-B*48:01; [20]): ≥ 20 µM | Kd (HLA-B*58:01 [14]; [20]): ≥ 20 µM | Kd (HLA-A*02:01 [15]): ≥ 20 µM | Kd (HLA-A*26:01 [11]; [20]): 0.0021 µM | Kd (HLA-B*27:05): ≥ 20 µM | Kd (HLA-B*40:01): ≥ 20 µM | Kd (HLA-A*33:01): 2.14 µM | Kd (HLA-A*68:01): 0.0146 µM | Kd (HLA-A*03:01 [16]; source organism: Variola virus): 1.95 µM | Kd (HLA-B*57:01; source organism: Variola virus): 0.926 µM | Kd (HLA-A*69:01 [6]; source organism: Variola virus): ≥ 20 µM | Kd (HLA-A*11:01): ≥ 20 µM | Kd (HLA-A*01:01; source organism: Variola virus): 3.6 µM | Kd (HLA-B*15:17): 0.0869 µM

AAAAFEAAL
Kd (HLA-C*14:02; [21]): 0.166 µM | Kd (HLA-B*48:01; source organism: Mycobacterium tuberculosis str. Haarlem): 0.175 µM

RMMATKDSF
Kd (HLA-A*68:02; [22]): ≥ 20 µM | Kd (HLA-A*02:16; [22]): ≥ 20 µM | Kd (HLA-A*03:01 [1]; [22]): ≥ 20 µM | Kd (HLA-A*02:03; [22]): ≥ 20 µM | Kd (HLA-C*14:02; [23]): 0.157 µM | Kd (HLA-C*15:02): ≥ 20 µM | Kd (HLA-B*58:01 [14]; source organism: Orthohantavirus moroense): 0.0065 µM | Kd (HLA-B*27:03; [23]): ≥ 20 µM | Kd (HLA-B*51:01; [23]): ≥ 20 µM | Kd (HLA-B*15:01 [17]; [23]): 0.0441 µM | Kd (HLA-B*46:01 [3]; [23]): ≥ 20 µM | Kd (HLA-A*69:01 [6]; [23]): ≥ 20 µM | Kd (HLA-B*39:01 [7]; [23]): ≥ 20 µM | Kd (HLA-A*26:01 [8]; [23]): ≥ 20 µM | Kd (HLA-B*18:01; [23]): ≥ 20 µM

HRTLLMNEL
Kd (HLA-C*06:02; source organism: Influenza A virus (A/nt/60/1968(H3N2))): ≥ 20 µM | Kd (HLA-B*39:01 [18]): ≥ 20 µM

IMYDHLPGF
Kd (HLA-C*12:03): 0.306 µM | Kd (HLA-A*68:02; [19]): ≥ 20 µM | Kd (HLA-A*02:16; [19]): ≥ 20 µM | Kd (HLA-A*03:01 [1]; [19]): ≥ 20 µM | Kd (HLA-A*02:03; [19]): ≥ 20 µM | Kd (HLA-A*02:12): ≥ 20 µM | Kd (HLA-A*02:19): ≥ 20 µM | Kd (HLA-B*27:03; [19]): ≥ 20 µM | Kd (HLA-B*57:01; [19]): ≥ 20 µM | Kd (HLA-B*58:01 [4]; [19]): 0.0731 µM | Kd (HLA-A*02:01 [5]): ≥ 20 µM | Kd (HLA-A*69:01 [6]; [19]): ≥ 20 µM | Kd (HLA-B*39:01 [7]; [19]): ≥ 20 µM | Kd (HLA-A*26:01 [8]; [19]): ≥ 20 µM | Kd (HLA-B*18:01; [19]): ≥ 20 µM

LVFLGPGLY
Kd (HLA-A*01:01; source organism: Homo sapiens): 0.221 µM

AMAAAAAPY
Kd (HLA-C*14:02; source organism: Mycobacterium tuberculosis H37Rv): 0.094 µM | Kd (HLA-B*15:01 [2]; source organism: Mycobacterium tuberculosis variant bovis BCG str. Pasteur 1173P2): 0.294 µM | Kd (HLA-B*35:01): 0.0083 µM

ASAAHLAAY
Kd (HLA-A*03:01 [16]; [21]): 0.7 µM | Kd (HLA-B*15:01 [17]; [21]): 0.156 µM | Kd (HLA-B*58:01 [4]; [21]): 1.26 µM | Kd (HLA-A*26:01 [8]; [21]): 0.775 µM | Kd (HLA-A*01:01; [21]): 0.0236 µM
